Reference: patent US20090048158A1, “Insulin-Like Growth Factor Binding Protein-4 Compounds and Methods for Inhibiting Angiogenesis and Tumor Growth in Mammalian Cells” (priority 2005, published 2009)

Key:
[1] = test system: plasminogen activator activity in U87MG cells; experiment: Plasminogen activator activity assay (S-2251); format: cell-based, human; conditions: 500 μM dB-cAMP, 3-day treatment
Description: Plasminogen activator activity (PAA) was determined by a spectrophotometric method using the chromogenic substrate S-2251 (D-Val-Leu-Lys p-nitroanilide dihydrochloride). […] Cells were washed 3 times and incubated for 2 h at 37° C. in phenol red-free D-MEM containing 2 c.u./ml plasminogen (DiaPharma Group, Ohio, USA) and 2 mM chromogenic substrate S-2251 (DiaPharma Group, Ohio, USA). The cleavage of 4-nitroaniline from the substrate by plasminogen activator was measured photometrically at 405 nm. Protein levels were measured with BioRad protein assay and PPA was expressed as a function of protein content in cell extracts.

PAI-1 in U87MG cells = experiment: Western blot of PAI-1; format: cell-based, human; conditions: 500 μM dB-cAMP, 6 days
Description: Cellular proteins were extracted using CHAPS buffer. Proteins were separated on a 10% SDS-PAGE gel and transferred onto nitrocellulose membranes. Membranes were blocked with 5% instant skim dry milk in PBST for 1 hour, then washed twice for 5 min with PBST. Blots were probed with 1:500 dilution of the PAI-1 primary antibody (Biogenesis Ltd, England, UK) in 2% skim milk in PBST supplemented with 10 mM sodium azide overnight at 4° C. After washing in PBST, membranes were incubated with HRP-labeled anti-mouse IgG secondary antibody (NEN Life Science Products, USA; 1:5000) for 1 h at room temperature. Bands were visualized using Western Blot Chemiluminescence Reagent Plus kit (NEN™ Life Science Products) and the Fluor-S™ multiImager (BioRad Lab., Hercules, Calif., USA).

U87MG cells [2] = experiment: Real-time PCR (Q-PCR) gene expression; format: cell-based, human; conditions: 500 μM dB-cAMP
Description: Total RNA was isolated from cells with TRIzol Reagent (Gibco BRL). The RNA (1 μg) was primed with oligo (dT)12-18 primers (0.5 μg/μg RNA, Gibco BRL) and reverse transcribed with 1-3 U of avian myeloblastosis virus reverse transcriptase (AMV RT, Promega) in a final volume of 20 μl. Completed RT reactions were diluted to 40 μl with water. Control reactions without the enzyme were run in parallel to monitor for potential genomic contamination. Primers were designed (Primer Express Software v2.0) for genes of interest (Table III) using Primer Express 2.0 program. Real-Time PCR was carried out with SYBR Green PCR Core Reagents Kit (Applied Biosystems, CA, USA) using the GeneAmp® 5700 Sequence Detection System (Perkin Elmer Applied Biosystems). A cDNA pool serially diluted from 1:10 to 1:1000 was used to generate standard curves. Reactions were performed in 20 μl reaction mixture containing 1×SYBR PCR buffer (Perkin-Elmer), 200 μM of each dATP, dCTP, dGTP and 400 μM dUTP, 0.025 U/μl AmpliTaq Gold, 0.01 U/μl AmpEraseUNG (uracil-N-glycosylase), 3 mM MgCl2, 120 nM of each primer and 2 μl of cDNA. […] Fluorescence was detected at the end of every 60° C. phase. […]
The PCR cycle number at which fluorescence reaches a threshold value of 10 times the standard deviation of baseline emission was used for quantitative measurements. […]

[3] = test system: human brain endothelial cells (HBEC); experiment: Capillary-like tube (CLT) formation in Matrigel; format: cell-based; conditions: for effect on IGF-1-induced CLT formation: IGF-1 150 ng/ml; for effect on IGF-1-induced CLT formation / effect on P1GF-induced CLT formation / effect on VEGF165-induced CLT formation / effect on bFGF-induced CLT formation: protein 500 ng/ml; for effect on P1GF-induced CLT formation: P1GF 100 ng/ml; for effect on VEGF165-induced CLT formation: VEGF165 20 ng/ml; for effect on bFGF-induced CLT formation: bFGF 20 ng/ml
Description: Angiogenesis is the formation of new blood vessels from pre-existing capillaries. There are different methods to evaluate angiogenesis in vitro and in vivo. The method used in our studies consists in seeding human brain microvascular endothelial cells on Matrigel, which is an active matrix material resembling the mammalian cellular basement membrane. Endothelial cells seeded on Matrigel behave as they do in vivo and when submitted to an angiogenic stimuli reorganize forming a complex network of capillary-like tubes. The total length of the capillary-like tube network as well as the number of branching point (nodes) formed by the endothelial cells directly correlate with the potency of the angiogenic stimuli.
In vitro angiogenesis was assessed by endothelial tube formation in growth factor reduced Matrigel™ (BD Bioscience, Bedford, Mass.). 24-well plates were coated with 300 μl of unpolymerized Matrigel™ (5-7 mg prot/ml) and allowed to polymerize for 90 min at 37° C. […] In a set of experiments, 500 ng/ml of either full length recombinant IGFBP-4, NBP-4 or CBP-4 were co-applied with growth factors (IGF-I, VEGF165, P1GF, or bFGF) or U87MG CM. […] CLT formation was analyzed after 24 h using an Olympus 1×50 microscope. Phase contrast images were captured with a digital video camera (Olympus U-CMT) and analyzed using Northern Eclipse v.5.0 software. Microphotographs were thresholded, converted to binary images and skeletonized. The total length of the CLT networks and the number of nodes (branching points) formed by HBEC in the center of the well (˜80% of the total surface) were quantified. […]

U87MG cells [4] = experiment: Anchorage-independent growth in semi-solid agar (U87MG); format: cell-based, human; conditions: for reduction of U87MG colony formation / tumor growth in soft agar: 500 ng/ml protein
Description: D-MEM containing 10% FBS was warmed to 48° C. and diluted with Bacto-Agar to make a 0.6% (w/v) agar solution; 3 ml of agar solution was poured into 60 mm plates. […] Number and size of colonies formed were analyzed under the microscope (Olympus 1×50). Phase contrast images (6 fields/dish) were captured using a digital video camera (Olympus U-CMT) and analyzed with Northern Eclipse v.5.0 software. Each experiment was done in triplicate. Capillary-like tube (CLT) formation

U87MG cells [5] = experiment: ELISA of secreted proteins in U87MG conditioned media; format: cell-based, human; conditions: 500 μM dB-cAMP, 6 days
U87MG cells [6] = experiment: U87MG proliferation, CyQUANT Cell Proliferation Assay; format: cell-based, human; conditions: for decrease in proliferation: 500 μM dB-cAMP
Description: Proliferation rates of U87MG cells were determined using CyQUANT® Cell Proliferation Assay Kit (Molecular Probes, Inc., Eugene, Oreg.). […] Cells were fed every two days and harvested at days 2, 3, 5 and 6 by washing with HBSS, blotting microplates dry and storing at −80° C. until analysis. For cell density determination, plates were thawed at room temperature, 200 μl of CyQUANT GR dye/lysis buffer was added to each well and plates were incubated in the dark for 5 min. Sample fluorescence was measured (485 nm ex/530 nm em) in a cytofluorimeter plate reader (Bio-Tek FL600) and fluorescence values converted into cell numbers from cell reference standard curves.

Hela cells = experiment: Anchorage-independent growth in semi-solid agar (Hela); format: cell-based, human; conditions: 500 ng/ml IGFBP-4, 4 weeks
Description: D-MEM containing 10% FBS was warmed to 48° C. and diluted with Bacto-Agar to make a 0.6% (w/v) agar solution; 3 ml of agar solution was poured into 60 mm plates. […] The solidified cell layer was covered with 500 μl D-MEM±treatment which was replaced every three days over a 20-25 day period. Number and size of colonies formed were analyzed under the microscope (Olympus 1×50). Phase contrast images (6 fields/dish) were captured using a digital video camera (Olympus U-CMT) and analyzed with Northern Eclipse v.5.0 software. Each experiment was done in triplicate. Capillary-like tube (CLT) formation

[7] = 500 ng/ml protein co-applied with U87MG CM

CCCC(=O)Nc1ncnc2c1ncn2[C@@H]1O[C@@H]2COP(=O)(O)O[C@H]2[C@H]1OC(=O)CCC [dB-cAMP, dibutyryl cyclic AMP]
reduction in plasminogen activator activity (PAA) [1]: 30% | PAI-1 protein expression (PAI-1 in U87MG cells): up-regulation | IGF-I and IGF-II mRNA change, Q-PCR (U87MG cells [2]): no changes were detected | IGFBP-3 mRNA levels treated vs untreated, Q-PCR (U87MG cells [2]; day 6): not significantly different | effect on U87MG CM-induced CLT formation ([3]; 500 μM dB-cAMP added directly to U87MG CM): did not inhibit CLT formation | CLT formation by HBEC exposed to CM of dB-cAMP-treated U87MG ([3]; U87MG treated with 500 μM dB-cAMP, 6 days): blocks the angiogenic response | total number of colonies vs untreated (U87MG cells [4]; 500 μM dB-cAMP or 500 ng/ml IGFBP-4): not significantly (p<0.05) different | reduction of size of colonies (total covered area per field) (U87MG cells [4]; 500 μM dB-cAMP, 4 weeks): ~75% | size of colonies (total covered area per field) (U87MG cells [4]; 500 μM dB-cAMP, 4 weeks, untreated 1.1±0.3): 0.3±0.1 mm^2 | VEGF-A levels in CM, increase vs untreated (U87MG cells [5]): 20% | levels of P1GF, IGF-1 and bFGF in CM (U87MG cells [5]): below the detection limit | VEGF-A level in CM of treated cells (U87MG cells [5]; untreated ~60): ~80 ng/mL | decrease in proliferation (U87MG cells [6]; day 3): ~30% | decrease in proliferation (U87MG cells [6]; day 5): ~45% | decrease in proliferation (U87MG cells [6]; day 6): ~50%

vascular endothelial growth factor-165 [VEGF]
HBEC preparations in which CLT formation was induced ([3]; 7 HBEC isolations, VEGF 20 ng/ml alone or U87MG CM): 3 out of 7

B1: CBP-4: recombinant C-terminal IGFBP-4 protein fragment, aa 155 to 258 of the precursor, tagged (protein)
chain: MLLLLLLLGLRLQLSLGIASKVNGAPREDARPVPQGSCQSELHRALERLAASQSRTHEDLYIIPIPNCDRNGNFHPKQCHPALDGQRGKCWCVDRKTGVKLPGGLEPKGELDCHQLADSFREVDPWSHPQFEKTGHHHHHHHHGGQ
modifications: tagged; IGFBP4 C-terminal construct
notes: recombinant C-terminal IGFBP-4 protein fragment, aa 155 to 258 of the precursor, tagged
effect on U87MG CM-induced CLT formation [3, 7]: completely blocking | effect on IGF-1-induced CLT formation [3]: completely blocking | effect on P1GF-induced CLT formation [3]: completely blocking | effect on VEGF165-induced CLT formation [3]: completely blocking | effect on bFGF-induced CLT formation [3]: completely blocking | reduction of U87MG colony formation / tumor growth in soft agar (U87MG cells [4]; 4 weeks): ~55%

B2: NBP-4: recombinant N-terminal IGFBP-4 protein fragment, aa 1 to 156 of the precursor, tagged (protein)
chain: MLPLCLVAALLLAAGPGPSLGDEAIHCPPCSEEKLARCRPPVGCEELVREPGCGCCATCALGLGMPCGVYTPRCGSGLRCYPPRGVEKPLHTLMHGQGVCMELAEIEAIQESLQPSDKDEGDHPNNSFSPCSAHDRRCLQKHFAKIRDRSTSGGKMDPWSHPQFEKTGHHHHHHHHGGQ
modifications: tagged; IGFBP4 N-terminal fragment construct
notes: recombinant N-terminal IGFBP-4 protein fragment, aa 1 to 156 of the precursor, tagged
effect on IGF-1-induced CLT formation [3]: abolish the angiogenic response | effect on VEGF165-induced CLT formation [3]: abolish the angiogenic response | reduction of U87MG colony formation / tumor growth in soft agar (U87MG cells [4]; 4 weeks): ~50%

B3: insulin-like growth factor binding protein (IGFBP)-4 (protein)
chain: MLPLCLVAALLLAAGPGPSLGDEAIHCPPCSEEKLARCRPPVGCEELVREPGCGCCATCALGLGMPCGVYTPRCGSGLRCYPPRGVEKPLHTLMHGQGVCMELAEIEAIQESLQPSDKDEGDHPNNSFSPCSAHDRRCLQKHFAKIRDRSTSGGKMKVNGAPREDARPVPQGSCQSELHRALERLAASQSRTHEDLYIIPIPNCDRNGNFHPKQCHPALDGQRGKCWCVDRKTGVKLPGGLEPKGELDCHQLADSFREVDPWSHPQFEKTGHHHHHHHHGGQ
modifications: Streptag-II/His8 tag; IGFBP-4 construct
notes: full length recombinant IGFBP-4 with Streptag-II/(His)8 tag, aa 1 to 258
reduction of Hela colony formation / colony size (Hela cells): ~45% | reduction of Hela colony formation / colony size (Hela cells; listed as IGFBP4): ~50% | effect on U87MG CM-induced CLT formation [3, 7]: reversed U87MG CM-stimulated CLT (FIG. 4A-C) to control levels | effect on IGF-1-induced CLT formation [3]: potently inhibited | effect on P1GF-induced CLT formation [3]: antagonized | effect on VEGF165-induced CLT formation [3]: antagonized | effect on bFGF-induced CLT formation [3]: antagonized | size of colonies (total area per field) (U87MG cells [4]; 500 ng/ml IGFBP-4, 4 weeks, untreated 1.5±0.6): 0.4±0.3 mm^2 | reduction of U87MG colony formation / tumor growth in soft agar (U87MG cells [4]; 4 weeks): ~80% | effect on U87MG proliferation rates (U87MG cells [6]; 500 ng/ml): did not affect U87MG proliferation rates
